The record followed here is patent publication US20200247855A1 (published 2020).

Targets include CXCL8_HUMAN (human, UniProt P10145 28-99); CCL2_HUMAN (human, UniProt P13500 24-99); CCL11_HUMAN (human, UniProt P51671 24-97); CCL13_HUMAN (human, UniProt Q99616 24-98); CCL7_HUMAN (human, UniProt P80098 24-99); CXCL6; CXCL4; CXCL10_HUMAN (human, UniProt P02778 22-98).
Common to all, as to assay: BLI
(In general: Biolayer interferometry detects binding as a change in optical thickness at a sensor tip.)

Assay [1] addresses T1, CXCL1_HUMAN (human, UniProt P09341 35-107).
Assay [2] addresses T2, CXCL3_HUMAN (human, UniProt P19876 35-107).
The target of another assay is T3, CCL18_HUMAN (human, UniProt P55774 21-89).
T3 chain: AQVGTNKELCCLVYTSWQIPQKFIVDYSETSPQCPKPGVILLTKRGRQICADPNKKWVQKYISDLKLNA

The target in the next assay is T4, CCL21_HUMAN (human, UniProt O00585 24-134).
T4 chain: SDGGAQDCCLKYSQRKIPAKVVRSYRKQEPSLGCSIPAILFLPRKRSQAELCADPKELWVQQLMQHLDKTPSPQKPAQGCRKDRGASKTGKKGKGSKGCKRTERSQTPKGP

A further assay deals with T5, CCL1_HUMAN (human, UniProt P22362 24-96).
T5 chain: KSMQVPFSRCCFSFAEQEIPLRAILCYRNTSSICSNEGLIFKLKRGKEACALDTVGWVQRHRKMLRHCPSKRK

For the next assay, the target named is T6, CCL23_HUMAN (human, UniProt P55773 22-120).
T6 chain: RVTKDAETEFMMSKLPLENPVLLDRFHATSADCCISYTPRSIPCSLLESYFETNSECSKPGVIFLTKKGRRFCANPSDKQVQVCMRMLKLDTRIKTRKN

The target in another assay is T7, CCL16_HUMAN (human, UniProt O15467 24-120).
T7 chain: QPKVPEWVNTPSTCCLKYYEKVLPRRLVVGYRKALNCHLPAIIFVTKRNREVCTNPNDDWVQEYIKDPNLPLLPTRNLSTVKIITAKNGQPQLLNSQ

The target in the next assay is T8, CCL3_HUMAN (human, UniProt P10147 24-92).
T8 chain: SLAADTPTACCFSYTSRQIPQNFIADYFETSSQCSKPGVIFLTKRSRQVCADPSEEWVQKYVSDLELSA

In another assay the target is T9, CCL14_HUMAN (human, UniProt Q16627 22-93).
T9 chain: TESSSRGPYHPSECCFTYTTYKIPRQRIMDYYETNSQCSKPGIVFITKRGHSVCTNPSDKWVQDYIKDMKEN

The target in a further assay is T10, CCL22_HUMAN (human, UniProt O00626 25-93).
T10 chain: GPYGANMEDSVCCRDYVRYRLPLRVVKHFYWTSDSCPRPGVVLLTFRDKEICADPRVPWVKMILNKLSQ

For the next assay, the target named is T11, CCL24_HUMAN (human, UniProt O00175 27-104).
T11 chain: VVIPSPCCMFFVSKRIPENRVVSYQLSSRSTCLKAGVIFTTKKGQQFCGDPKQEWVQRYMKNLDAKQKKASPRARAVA

Another assay deals with T12, CCL15_HUMAN (human, UniProt Q16663 22-113).
T12 chain: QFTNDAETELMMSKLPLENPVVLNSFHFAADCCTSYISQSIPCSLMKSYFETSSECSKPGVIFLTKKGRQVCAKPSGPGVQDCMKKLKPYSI

Another assay addresses T13, CCL3L1_HUMAN (human, UniProt P16619 24-93).
T13 chain: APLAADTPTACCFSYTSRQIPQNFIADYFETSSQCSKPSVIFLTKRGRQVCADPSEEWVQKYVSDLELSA

The target in the next assay is T14, CCL27_HUMAN (human, UniProt Q9Y4X3 25-112).
T14 chain: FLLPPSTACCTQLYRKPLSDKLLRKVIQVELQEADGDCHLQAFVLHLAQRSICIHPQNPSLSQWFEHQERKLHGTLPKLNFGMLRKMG

Another assay deals with T15, CCL17_HUMAN (human, UniProt Q92583 24-94).
T15 chain: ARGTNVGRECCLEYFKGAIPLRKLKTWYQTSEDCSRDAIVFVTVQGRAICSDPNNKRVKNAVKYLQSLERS

The next assay concerns the target T16, CCL5_HUMAN (human, UniProt P13501 24-91).
T16 chain: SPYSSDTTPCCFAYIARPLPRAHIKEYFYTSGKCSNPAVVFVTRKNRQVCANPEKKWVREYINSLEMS

In a further assay the target is T17, CCL8_HUMAN (human, UniProt P80075 24-99).
T17 chain: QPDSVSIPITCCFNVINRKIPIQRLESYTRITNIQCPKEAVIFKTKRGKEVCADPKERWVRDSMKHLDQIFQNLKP

For the next assay, the target named is T18, CCL4_HUMAN (human, UniProt P13236 24-92).
T18 chain: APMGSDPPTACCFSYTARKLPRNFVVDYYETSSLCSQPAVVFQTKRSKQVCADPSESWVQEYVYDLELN

The target of a further assay is T19, CCL4L1_HUMAN (human, UniProt Q8NHW4 24-92).
T19 chain: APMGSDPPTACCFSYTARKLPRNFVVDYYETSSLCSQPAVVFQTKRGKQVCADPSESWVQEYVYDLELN

In assay [3] the target is CXCL5.
The target of assay [4] is CXCL2.
For assay [5], the target named is CXCL5. The source holds these as a separate data set.
Assay [6] deals with CXCL2. The source holds these as a separate data set.
For another assay, the target named is T20, CXCL11_HUMAN (human, UniProt O14625 22-94).
T20 chain: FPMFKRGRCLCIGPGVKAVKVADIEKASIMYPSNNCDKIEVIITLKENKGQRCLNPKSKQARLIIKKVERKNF

A further assay addresses T21, CXCL7_HUMAN (human, UniProt P02775 59-128).
T21 chain: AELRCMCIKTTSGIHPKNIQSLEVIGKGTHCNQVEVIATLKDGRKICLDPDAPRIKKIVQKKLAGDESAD

The target in assay [7] is T1, CXCL1_HUMAN. The source holds these as a separate data set.
Assay [8] addresses T2, CXCL3_HUMAN. The source holds these as a separate data set.

Where two headings read alike, the source gives them in different places.

T1 sequence (P09341 35-107): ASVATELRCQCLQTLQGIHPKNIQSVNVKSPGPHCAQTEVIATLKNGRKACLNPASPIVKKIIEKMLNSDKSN
T2 sequence (P19876 35-107): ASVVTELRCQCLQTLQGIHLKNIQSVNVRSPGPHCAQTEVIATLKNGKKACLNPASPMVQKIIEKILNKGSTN
Sequence of CCL2_HUMAN (P13500 24-99): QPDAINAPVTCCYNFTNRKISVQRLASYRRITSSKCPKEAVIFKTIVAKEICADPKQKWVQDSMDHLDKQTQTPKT
Sequence of CCL7_HUMAN (P80098 24-99): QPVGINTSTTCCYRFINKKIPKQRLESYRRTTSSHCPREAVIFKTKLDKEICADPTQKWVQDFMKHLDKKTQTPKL
Sequence of CCL13_HUMAN (Q99616 24-98): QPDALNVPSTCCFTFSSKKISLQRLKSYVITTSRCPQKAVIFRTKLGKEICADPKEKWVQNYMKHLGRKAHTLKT
Sequence of CXCL8_HUMAN (P10145 28-99): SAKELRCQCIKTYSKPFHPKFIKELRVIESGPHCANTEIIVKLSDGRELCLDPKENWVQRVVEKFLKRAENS
Sequence of CCL11_HUMAN (P51671 24-97): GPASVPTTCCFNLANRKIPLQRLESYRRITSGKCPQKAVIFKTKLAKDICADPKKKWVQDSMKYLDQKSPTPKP
Sequence of CXCL10_HUMAN (P02778 22-98): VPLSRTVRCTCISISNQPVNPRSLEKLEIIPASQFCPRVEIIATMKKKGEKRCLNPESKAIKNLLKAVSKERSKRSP

B1: P1156:G4S:P991 (designed binder)
chain: ADDDNELFTVQYCGMNCTKDEGGTWTGCTGKKEGCKCYHESGKNYGLCLSTEYTDFSQYGNPSDSEIEAAKPKRSDTLSHGGGGSENGEGTTQPDYDNSTDYYNYEDFKCTCPAPHLNNTNGTVMKPIGCYYTCNVTRCTAPDTYPCYNLTEHQAKNLTTSPTTLCAVGNCDHGICVPNGTKELCFKAPNLEE
For orientation: Kd means the concentration at which binding is half-saturated. Low values mean higher affinity, high ones lower affinity. Turning to B1, the Kd worked out at 1.5 nM in the assay with CXCL8_HUMAN; 2.72 nM with CXCL1_HUMAN [1]; 61.4 nM with CXCL3_HUMAN [2]; 0.201 nM with CCL18_HUMAN; 19.9 nM with CCL21_HUMAN; 16.6 nM in the assay with CCL1_HUMAN. The Kd with CCL23_HUMAN came to 7 nM; in the assay with CCL2_HUMAN, 32.1 nM; in the assay with CCL11_HUMAN, 1.54 nM; with CCL16_HUMAN, 0.503 nM; with CCL3_HUMAN it was 1.89 nM; with CCL14_HUMAN, 0.664 nM. The equilibrium dissociation constant (Kd) with CCL22_HUMAN was found to be 2.18 nM; with CCL24_HUMAN it was 3.58 nM; in the assay with CCL15_HUMAN, 166 nM; with CCL3L1_HUMAN, 3.09 nM; in the assay with CCL13_HUMAN it was 0.207 nM; with CCL27_HUMAN, 36.2 nM. Besides, the Kd stood at 7.44 nM in the assay with CCL17_HUMAN; 0.435 nM with CCL7_HUMAN; 0.754 nM in the assay with CCL5_HUMAN; 7.45 nM in the assay with CCL8_HUMAN; 3.55 nM in the assay with CCL4_HUMAN; 1.28 nM with CCL4L1_HUMAN. In addition, the Kd with CXCL5 [3] is 22.7 nM; in the assay with CXCL2 [4] it was 25.2 nM.

B2: P1126_AMBCA (other)
chain: KPQILQRTDKSTDSEWDPQTCPETCIPSKNITCSDGCVCVKLGEEEEGTCFNMTGVDWLGSPSDD
Take B2: the Kd is 12.1 nM with CXCL5 [5]; 5.11 nM in the assay with CXCL2 [6]; 9.12 nM with CXCL6; 393 nM with CXCL4; 7.9 nM with CXCL10_HUMAN; 394 nM in the assay with CXCL11_HUMAN. In addition, the Kd is 6.05 nM with CXCL7_HUMAN, 10.5 nM with CXCL1_HUMAN [7] and 13.3 nM in the assay with CXCL3_HUMAN [8].

B3: P1142_AMBCA (other)
chain: KPQILQRTDHSTDSDWDPQMCPETCNPSKNISCSSECLCVTLGGGDETGTCFNMSGVDWLGHAQASDGHNDG
On to B3, for which the Kd came to 9.81 nM with CXCL5 [5]; 2.14 nM with CXCL2 [6]; 6.27 nM in the assay with CXCL6; 381 nM in the assay with CXCL4; 7.46 nM with CXCL10_HUMAN; 322 nM with CXCL11_HUMAN. For the same molecule, the equilibrium dissociation constant (Kd) in the assay with CXCL7_HUMAN is 1.83 nM; with CXCL1_HUMAN [7], 4.61 nM; with CXCL3_HUMAN [8], 5.65 nM.

B4: P991:G4S:P1156 (designed binder)
chain: ENGEGTTQPDYDNSTDYYNYEDFKCTCPAPHLNNTNGTVMKPIGCYYTCNVTRCTAPDTYPCYNLTEHQAKNLTTSPTTLCAVGNCDHGICVPNGTKELCFKAPNLEEGGGGSADDDNELFTVQYCGMNCTKDEGGTWTGCTGKKEGCKCYHESGKNYGLCLSTEYTDFSQYGNPSDSEIEAAKPKRSDTLSH
B4: the Kd turned out to be 3.56 nM in the assay with CXCL8_HUMAN; 5.08 nM with CXCL1_HUMAN [1]; 89.9 nM with CXCL3_HUMAN [2]; 0.143 nM with CCL18_HUMAN; 18.2 nM in the assay with CCL21_HUMAN; 7.66 nM with CCL1_HUMAN. Also, the dissociation constant (Kd) with CCL23_HUMAN came to 5.13 nM; in the assay with CCL2_HUMAN, 24.8 nM; with CCL11_HUMAN it was 1.39 nM; with CCL16_HUMAN, 0.636 nM; in the assay with CCL3_HUMAN, 2.22 nM; in the assay with CCL14_HUMAN it was 0.835 nM. The Kd is 2.36 nM with CCL22_HUMAN; 3.18 nM with CCL24_HUMAN; 127 nM with CCL15_HUMAN; 2.91 nM with CCL3L1_HUMAN; 0.176 nM with CCL13_HUMAN; 42.6 nM in the assay with CCL27_HUMAN. In addition, the Kd with CCL17_HUMAN stood at 5.8 nM; with CCL7_HUMAN, 0.287 nM; in the assay with CCL5_HUMAN it was 0.947 nM; in the assay with CCL8_HUMAN it was 7.89 nM; with CCL4_HUMAN it was 3.54 nM; with CCL4L1_HUMAN, 1.24 nM. Also, the Kd stood at 52.7 nM with CXCL5 [3] and 48.9 nM in the assay with CXCL2 [4].
